In patent US20200231538, “NOVEL COMPOUNDS AND THERAPEUTICS USES THEREOF” (Centauri Therapeutics Limited (GB/GB), published 2020):

Experiments:
[1] = target: T1, PSMA (Homo sapiens, UniProt Q04609 Q04609:1-750); test: flow; 10 nM (11.1 at 1 uM); anti-alpha-Gal IgG recruitment to LNCaP cells; PBS, 5 mM MgCl2, RT; conditions: tags: LNCaP cells (ATCC CRL-1740), endogenous overexpression
Procedure: (§1) LNCaP cells (ATCC CRL-1740) were harvested and resuspended at 5×10⁶ cells/mL in phosphate buffered saline (PBS) (Sigma D8662)+0.1% BSA (Bovine Serum Albumin—Sigma A2153)+0.1 mg/mL Yeast t-RNA (Invitrogen 15401-011)+5 mM MgCl₂ (Sigma M1028) and incubated on ice for 30 minutes to block. 5×10⁵ cells were then incubated with compound at various concentrations as described below or buffer alone at room temperature, shaking at 450 rpm for 1 hour. […] The cells were further washed with 3×200 μL PBS+0.1% BSA before being treated with 100 μL 1:40 dilution of Anti-Human IgG-PE (phycoerythrin) (Biolegend 409303) at 4° C. for 1 hour. After a final wash of 3×200 μL PBS+0.1% BSA the cells were resuspended in 200 μL PBS+0.1% BSA and evaluated on a flow cytometer (FC500 Beckman Coulter). Data from all samples were analysed in the Kaluza software package (Beckman Coulter).
(§2) The fold shift over background was calculated by dividing the Mean Fluorescence Intensity (MFI) obtained in the presence of 10 nM or 1 μM alphamer by the Mean Fluorescence Intensity (MFI) obtained in the absence of alphamer. The fold shift over background is reported as a geometric mean with standard error in brackets. The number of independent experiments is also reported. […]

[2] = target: T1, PSMA; test: flow; 10 nM (8.6 at 1 uM); anti-alpha-Gal IgG recruitment to LNCaP cells; PBS, 5 mM MgCl2, RT; conditions: tags: LNCaP cells (ATCC CRL-1740), endogenous overexpression
Procedure: as §1, §2

[3] = target: T1, PSMA; test: flow; 10 nM (8.5 at 1 uM); anti-alpha-Gal IgG recruitment to LNCaP cells; PBS, 5 mM MgCl2, RT; conditions: tags: LNCaP cells (ATCC CRL-1740), endogenous overexpression
Procedure: as §1, §2

[4] = target: T2, EGFR (Homo sapiens, UniProt P00533 P00533:25-1210); test: flow; 10 nM (9.8 at 1 uM); anti-alpha-Gal IgG recruitment to A431 cells; PBS, 5 mM MgCl2, RT; conditions: tags: A431 cells (ATCC CRL-1555), endogenous overexpression
Procedure: (§3) A431 cells (ATCC CRL-1555) were harvested and resuspended at 5×10⁶ cells/mL in phosphate buffered saline (PBS) (Sigma D8662)+0.1% BSA (Bovine Serum Albumin—Sigma A2153)+0.1 mg/mL Yeast t-RNA (Invitrogen 15401-011)+5 mM MgCl₂ (Sigma M1028) and incubated on ice for 30 minutes to block. 5×10⁵ cells were then incubated with compound at various concentrations as described below or buffer alone at room temperature, shaking at 450 rpm for 1 hour. The cells were washed with 3×200 μL PBS+0.1% BSA, prior to adding 50 μL of Anti-alpha galactosyl IgG antibody (custom purification from human IVIG, Rockland Immunochemicals, Inc.) at 35 μg/mL in PBS+0.1% BSA and incubating at 4° C. for 1 hour. The cells were further washed with 3×200 μL PBS+0.1% BSA before being treated with 100 μL 1:40 dilution of Anti-Human IgG-PE (phycoerythrin) (Biolegend 409303) at 4° C. for 1 hour. After a final wash of 3×200 μL PBS+0.1% BSA the cells were resuspended in 200 μL PBS+0.1% BSA and evaluated on a flow cytometer (FC500 Beckman Coulter). Data from all samples were analysed in the Kaluza software package (Beckman Coulter).
(§4) The fold shift over background was calculated by dividing the Mean Fluorescence Intensity (MFI) obtained in the presence of 10 nM or 1 μM alphamer by the Mean Fluorescence Intensity (MFI) obtained in the absence of alphamer. […]

[5] = target: T2, EGFR; test: flow; 10 nM (18.4 at 1 uM); anti-alpha-Gal IgG recruitment to A431 cells; PBS, 5 mM MgCl2, RT; conditions: tags: A431 cells (ATCC CRL-1555), endogenous overexpression
Procedure: as §3, §4

[6] = target: T2, EGFR; test: flow; 10 nM (16.3 at 1 uM); anti-alpha-Gal IgG recruitment to A431 cells; PBS, 5 mM MgCl2, RT; conditions: tags: A431 cells (ATCC CRL-1555), endogenous overexpression
Procedure: as §3, §4

[7] = target: T2, EGFR; test: flow; 10 nM (7.5 at 1 uM); anti-alpha-Gal IgG recruitment to A431 cells; PBS, 5 mM MgCl2, RT; conditions: tags: A431 cells (ATCC CRL-1555), endogenous overexpression
Procedure: as §3, §4

T1 sequence (Q04609 whole entry, one chain of several): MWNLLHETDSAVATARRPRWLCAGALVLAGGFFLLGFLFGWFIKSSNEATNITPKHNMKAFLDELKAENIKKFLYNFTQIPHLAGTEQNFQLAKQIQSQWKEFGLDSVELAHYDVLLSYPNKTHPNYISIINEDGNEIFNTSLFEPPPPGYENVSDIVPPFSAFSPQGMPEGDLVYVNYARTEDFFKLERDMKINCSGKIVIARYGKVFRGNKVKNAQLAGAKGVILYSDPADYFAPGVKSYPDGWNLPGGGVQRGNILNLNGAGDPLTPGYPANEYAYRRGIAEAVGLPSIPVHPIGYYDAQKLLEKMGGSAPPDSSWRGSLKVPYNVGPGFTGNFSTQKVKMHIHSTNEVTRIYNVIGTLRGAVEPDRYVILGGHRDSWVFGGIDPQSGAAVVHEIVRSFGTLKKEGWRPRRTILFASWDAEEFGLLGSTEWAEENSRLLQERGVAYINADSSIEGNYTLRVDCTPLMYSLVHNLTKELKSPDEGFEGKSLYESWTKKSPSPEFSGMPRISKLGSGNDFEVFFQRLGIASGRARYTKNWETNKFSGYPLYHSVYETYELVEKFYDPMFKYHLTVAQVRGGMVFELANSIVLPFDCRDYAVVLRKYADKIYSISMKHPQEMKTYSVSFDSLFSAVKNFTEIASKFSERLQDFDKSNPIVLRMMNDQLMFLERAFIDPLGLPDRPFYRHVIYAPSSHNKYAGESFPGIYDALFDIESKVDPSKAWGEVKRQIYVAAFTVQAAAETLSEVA

B1: Example 5 (PSMA aptamer A9g-alpha-Gal double cluster 1) (ssRNA)
RNA: GGGACCGAAAAAGACCUGACUUCUAUACUAAGUCUACGUUCCC
modifications: 2'-F pyrimidines, 2'-OH purines; 5' H2N-(CH2)6 linked to alpha-Gal cluster; 3' idT
With B1 the binding signal [1] was 7.8 fold MFI over background.

B2: Example 7 (PSMA aptamer A9g-alpha-Gal double cluster 2) (ssRNA)
RNA: GGGACCGAAAAAGACCUGACUUCUAUACUAAGUCUACGUUCCC
modifications: 2'-F pyrimidines, 2'-OH purines; 5' H2N-(CH2)6 linked to alpha-Gal cluster; 3' idT
In the case of B2, the binding signal [2] is reported as 3.82 fold MFI over background.

B3: Example 6 (PSMA aptamer A9g-alpha-Gal double cluster 5) (ssRNA)
RNA: GGGACCGAAAAAGACCUGACUUCUAUACUAAGUCUACGUUCCC
modifications: 2'-F pyrimidines, 2'-OH purines; 5' H2N-(CH2)6 linked to alpha-Gal cluster; 3' idT
B3 showed a binding signal [3] of 5.33 fold MFI over background.

B4: Example 1 (EGFR aptamer 1-alpha-Gal double cluster 1) (ssRNA)
RNA: GGGAUUUAAUCGCCGUAGAAAAGCAUGUCAAAGCCGGAACCC
modifications: 2'-F pyrimidines, 2'-OMe at most purines (mG, most mA), remaining A 2'-OH; 5' H2N-(CH2)6 linked to alpha-Gal cluster; 3' idT
Work on B4 yielded a binding signal [4] of 7.7 fold MFI over background.

B5: Example 2 (EGFR aptamer 1-alpha-Gal double cluster 2) (ssRNA)
RNA: GGGAUUUAAUCGCCGUAGAAAAGCAUGUCAAAGCCGGAACCC
modifications: 2'-F pyrimidines, 2'-OMe at most purines (mG, most mA), remaining A 2'-OH; 5' H2N-(CH2)6 linked to alpha-Gal cluster; 3' idT
Binder B5 has a binding signal [5] of 10.7 fold MFI over background.

B6: Example 3 (EGFR aptamer 1-alpha-Gal double cluster 3) (ssRNA)
RNA: GGGAUUUAAUCGCCGUAGAAAAGCAUGUCAAAGCCGGAACCC
modifications: 2'-F pyrimidines, 2'-OMe at most purines (mG, most mA), remaining A 2'-OH; 5' H2N-(CH2)6 linked to alpha-Gal cluster; 3' idT
B6 was tested, and the binding signal [6] was 9.7 fold MFI over background.

B7: Example 4 (EGFR aptamer 1-alpha-Gal double cluster 4) (ssRNA)
RNA: GGGAUUUAAUCGCCGUAGAAAAGCAUGUCAAAGCCGGAACCC
modifications: 2'-F pyrimidines, 2'-OMe at most purines (mG, most mA), remaining A 2'-OH; 5' H2N-(CH2)6 linked to alpha-Gal cluster; 3' idT
In the case of B7, the binding signal [7] is reported as 3.4 fold MFI over background.
